Data set [1] addresses His6UBI::ElisaC hybrid protein (six histidines, ubiquitin and the C-terminal fragment of UBP1ΔC protease).
Data set [2] deals with T1, UBI::KALA hybrid protein substrate (ubiquitin fused to the 18-amino-acid KALA peptide).
T1 chain: DPGDKDGDGYISAAEAMA

B1: UBP1ΔC2 protease (UBP1 truncated by 98 N-terminal amino acids, mutation C Gln754Leu, six histidine residues at its C-end) (protein)
chain: GGFIAGLVNDGNTCFMNSVLQSLASSRELMEFLDNNVIRTYEEIEQNEHNEEGNGQESAQDEATHKKNTRKGGKVYGKHKKKLNRKSSSKEDEEKSQEPDITFSVALRDLLSALNAKYYRDKPYFKTNSLLKAMSKSPRKNILLGYDQEDAQEFFQNILAELESNVKSLNTEKLDTTPVAKSELPDDALVGQLNLGEVGTVYIPTEQIDPNSILHDKSIQNFTPFKLMTPLDGITAERIGCLQCGENGGIRYSVFSGLSLNLPNENIGSTLKLSQLLSDWSKPEIIEGVECNRCALTAAHSHLFGQLKEFEKKPEGSIPEKPINAVKDRVHQIEEVLAKPVIDDEDYKKLHTANMVRKCSKSKQILISRPPPLLSIHINRSVFDPRTYMIRKNNSKVLFKSRLNLAPWCCDINEINLDARLPMSKKEKAAQQDSSEDENIGGEYYTKLHERFEQEFEDSEEEKEYDDAEGNYASHYNHTKDISNYDPLNGEVDGVTSDDEDEYIEETDALGNTIKKRIIEHSDVENENVKDNEELQEIDNVSLDEPKINVEDQLETSSDEEDVIPAPPINYARSFSTVPATPLTYSLRSVIVHYGTHNYGHYIAFRKYRGCWWRISDETVYVVDEAEVLSTPGVFMLFYEYDFDEETGKMKDDLEAILSNNEEDDEKEQEQKGVQEPKESQEQGEGEEQEEGQEQMKFERTEDHRDISGKDVNGSHHHHHH
As for B1, the “preparative digestion of the hybrid protein, then Ni-NTA chromatography and SDS-PAGE” value in data set [1] is “High purity ElisaC protein was obtained, cleaved from 6HisUBI”. Moreover, the “proteolytic activity (cleavage of ubiquitin from the hybrid substrate, SDS-PAGE image analysis), fold over UBP1ΔC” value in data set [1] and in data set [2] was “the enzyme UBP1ΔC2 is 5-6 times more active than mutant UBP1 AC” in each case.

B2: UBP1ΔC protease (UBP1 deletion mutant with mutation C at position 754) (protein)
chain: GGDHLNYIVESVSEMTTNFRNNNSLSRWLPRSKFTHLDEEILKRGGFIAGLVNDGNTCFMNSVLQSLASSRELMEFLDNNVIRTYEEIEQNEHNEEGNGQESAQDEATHKKNTRKGGKVYGKHKKKLNRKSSSKEDEEKSQEPDITFSVALRDLLSALNAKYYRDKPYFKTNSLLKAMSKSPRKNILLGYDQEDAQEFFQNILAELESNVKSLNTEKLDTTPVAKSELPDDALVGQLNLGEVGTVYIPTEQIDPNSILHDKSIQNFTPFKLMTPLDGITAERIGCLQCGENGGIRYSVFSGLSLNLPNENIGSTLKLSQLLSDWSKPEIIEGVECNRCALTAAHSHLFGQLKEFEKKPEGSIPEKPINAVKDRVHQIEEVLAKPVIDDEDYKKLHTANMVRKCSKSKQILISRPPPLLSIHINRSVFDPRTYMIRKNNSKVLFKSRLNLAPWCCDINEINLDARLPMSKKEKAAQQDSSEDENIGGEYYTKLHERFEQEFEDSEEEKEYDDAEGNYASHYNHTKDISNYDPLNGEVDGVTSDDEDEYIEETDALGNTIKKRIIEHSDVENENVKDNEELQEIDNVSLDEPKINVEDQLETSSDEEDVIPAPPINYARSFSTVPATPLTYSLRSVIVHYGTHNYGHYIAFRKYRGCWWRISDETVYVVDEAEVLSTPGVFMLFYEYDFDEETGKMKDDLEAILSNNEEDDEKEQEQKGVQEPKESQEQGEGEEQEEGQEQMKFERTEDHRDISGKDVNGSHHHHHH
As to B2, the “proteolytic activity (cleavage of ubiquitin from the hybrid substrate, SDS-PAGE image analysis), reference enzyme” value in data set [1] and in data set [2] was “the enzyme UBP1ΔC2 is 5-6 times more active than mutant UBP1 AC” throughout.

Values taken from patent US20080153130.
